From patent publication US20130196406A1, “NOVEL PROTEIN-POLYMER NANOCAPSULES” (University of Connecticut, priority 2012, published 2013)
Where “and” joins values, the source holds several entries; their conditions need not be identical. Equal values may be shown once.

Tested on: T1, COc1ccccc1O
T1 construct: peroxidase-like activity with guaiacol/H2O2
Assay: Peroxidase-like activity, Michaelis-Menten kinetics (guaiacol oxidation by H2O2, 470 nm), unmodified Hb
Assay type: biochemical, bovine
Conditions: other: Hb, 1 μM Hb, 2.5 mM guaiacol
Protocol: FIG. 5 provides Lineweaver-Burk plots for the peroxidase-like activity of Hb-PAA conjugates. A) Peroxidase-like activity for the 1 μM of Hb-PAA synthesized at pH 6.0. B) Peroxidase-like activity for 1 μM Hb-PAA synthesized at pH 7.0. All experiments were done in the presence of 1 μM Hb, 2.5 mM guaiacol and 1 mM H2O2.
Polyacrylic acid (PAA) (8000 Da) was purchased from sigma chemical Co (St. Louis, Mo.). The PAA stock solution was made by mixing 1.32 gm of 45% (w/w) PAA in 3 ml of 20 mM Na2HPO4 buffer, pH 7.2, and was further used for synthesis. Met-hemoglobin (Hb, bovine) was purchased from Sigma. Protein solutions were prepared in the respective buffers used for synthesis and the concentrations determined from the Soret absorbance of Hb using extinction co-efficient 303,956 M^−1 cm^−1 at 407 nm.
Hb activity was monitored by the addition of guaiacol (substrate) and hydrogen peroxide (oxidant), and formation of the colored product has been monitored by its absorption at 470 nm as a function of time (FIG. 4). […]
Hb activity was followed by literature method, with minor modifications. Product absorbance at 470 nm was monitored as a function time of after the addition of H2O2 (1 mM) to Hb (5 μM) and o-methoxyphenol (2.5 mM). Initial rates and Michaelis-Menten parameters were calculated from the kinetic data by following standard protocols. […]

Chain of Met-hemoglobin (Hb, bovine), unmodified (Bos taurus) (chain, as listed by the source): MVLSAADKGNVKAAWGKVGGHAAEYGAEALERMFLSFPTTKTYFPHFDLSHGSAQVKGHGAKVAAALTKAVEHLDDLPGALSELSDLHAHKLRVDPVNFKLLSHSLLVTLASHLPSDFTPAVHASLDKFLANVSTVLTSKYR
Chain of Met-hemoglobin (Hb, bovine), unmodified (Bos taurus) (chain, as listed by the source): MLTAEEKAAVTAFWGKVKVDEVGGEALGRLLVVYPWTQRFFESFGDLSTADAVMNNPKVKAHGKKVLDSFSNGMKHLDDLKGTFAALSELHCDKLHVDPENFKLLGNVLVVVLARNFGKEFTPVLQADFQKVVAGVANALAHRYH

Substance: Met-hemoglobin (Hb, bovine), unmodified (Bos taurus)
- Km (1 mM H2O2): 500 µM and 507 µM
- Vmax (1 mM H2O2, 120.0 °C): 0.0026 mM/s and 0.0021 mM/s
